Assay results from patent US20180155451A1 (published 2018).
Each block holds one binder with its values, some of them ahead of it.

Experiments:
[1] = biological target: T1, FcγRIIIa V type extracellular domain with C-terminal His tag (human, UniProt P08637 17-208); test: SPR (Biacore), antibody captured on chip, soluble FcgR as analyte; experiment 1
T1 construct: extracellular domain; also called FcgRIIIa V; FcgRIIIaV; not shown: His tag at the C terminus
Method: (§1) Antibodies of interest were analyzed for the interaction to FcgR according to the method described in Reference Example 8.
(§2) Analysis of interaction between obj ective antibody and the FcγR was carried out using Biacore T100 (GE Healthcare), Biacore T200, Biacore A100, and Biacore 4000. HBS-EP+ (GE Healthcare) was used as the running buffer, and the measurement temperature was set to 25° C. Chips produced by immobilizing the antigen peptide by the amine coupling method to a Series S sensor Chip CM5 (GE Healthcare), chips produced by allowing preliminarily biotinylated antigen peptides to interact with and immobilize onto a Series S Sensor Chip SA (certified) (GE Healthcare), chips produced by immobilizing Protein L (ACTIGEN, BioVision) to Series S Sencor Chip CM5 (GE Healthcare), or chips produced by immobilizing Protein A/G (Thermo Scientific) to Series S Sencor Chip CM5 (GE Healthcare) were used. Antibodies of interest were captured onto these chips, and allowed to interact to each FcγR diluted with running buffer. To regenerate and repeatedly use the chip, the antibodies captured onto the chip were washed off by reacting 10 mM glycine-HCl, pH 1.5.

[2] = biological target: T2, FcγRIIb extracellular domain with C-terminal His tag (human, UniProt P31994 43-217); test: as above
T2 construct: extracellular domain; also called FcgRIIb; 2b; not shown: His tag at the C terminus
T2 sequence (looked up): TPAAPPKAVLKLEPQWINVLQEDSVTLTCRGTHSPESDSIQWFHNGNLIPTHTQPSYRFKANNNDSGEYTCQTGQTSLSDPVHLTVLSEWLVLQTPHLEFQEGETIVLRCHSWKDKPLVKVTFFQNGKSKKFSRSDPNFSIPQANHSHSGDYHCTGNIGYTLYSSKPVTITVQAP
Method: as §1, §2

[3] = biological target: T3, FcγRIIa R type extracellular domain with C-terminal His tag (human, UniProt P12318 34-217); test: as above
T3 construct: extracellular domain; also called FcgRIIa R; FcgRIIaR; not shown: His tag at the C terminus
T3 sequence (looked up): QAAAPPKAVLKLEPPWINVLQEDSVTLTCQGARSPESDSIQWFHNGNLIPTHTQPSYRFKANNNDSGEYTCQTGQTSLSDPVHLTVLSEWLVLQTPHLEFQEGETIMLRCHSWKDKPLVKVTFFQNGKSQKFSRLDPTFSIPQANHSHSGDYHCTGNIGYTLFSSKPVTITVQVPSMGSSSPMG
Method: as §1, §2

[4] = biological target: T4, FcγRIa extracellular domain with C-terminal His tag (human, UniProt P12314 16-292); test: as above
T4 construct: extracellular domain; also called FcgRI; FcgRIa; not shown: His tag at the C terminus
Method: as §1, §2

[5] = biological target: T5, FcγRIIIa F type extracellular domain with C-terminal His tag (human, UniProt P08637 17-208); test: as above
T5 construct: extracellular domain; also called FcgRIIIa F; FcgRIIIaF; not shown: His tag at the C terminus
Method: as §1, §2

[6] = biological target: T6, FcγRIIa H type extracellular domain with C-terminal His tag (human, UniProt P12318 34-217); test: as above
T6 construct: extracellular domain; also called FcgRIIa H; FcgRIIaH; not shown: His tag at the C terminus
T6 sequence (looked up): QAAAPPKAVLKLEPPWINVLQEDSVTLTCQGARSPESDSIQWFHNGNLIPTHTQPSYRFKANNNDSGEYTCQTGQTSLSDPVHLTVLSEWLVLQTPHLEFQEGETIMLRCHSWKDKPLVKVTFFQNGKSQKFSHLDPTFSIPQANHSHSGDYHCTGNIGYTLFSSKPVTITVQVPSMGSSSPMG
Method: as §1, §2

[7] = biological target: T1, FcγRIIIa V type extracellular domain …; test: SPR (Biacore), antibody captured on chip, soluble FcgR as analyte; experiment 2
Method: as §1, §2

[8] = biological target: T2, FcγRIIb extracellular domain with …; test: as above
Method: as §1, §2

[9] = biological target: T3, FcγRIIa R type extracellular domain …; test: as above
Method: as §1, §2

[10] = biological target: T4, FcγRIa extracellular domain with …; test: as above
Method: as §1, §2

[11] = biological target: T5, FcγRIIIa F type extracellular domain …; test: as above
Method: as §1, §2

[12] = biological target: T6, FcγRIIa H type extracellular domain …; test: as above
Method: as §1, §2

[13] = biological target: T1, FcγRIIIa V type extracellular domain …; test: SPR (Biacore), antibody captured on chip, soluble FcgR as analyte; experiment 3
Method: as §1, §2

[14] = biological target: T2, FcγRIIb extracellular domain with …; test: as above
Method: as §1, §2

[15] = biological target: T3, FcγRIIa R type extracellular domain …; test: as above
Method: as §1, §2

[16] = biological target: T4, FcγRIa extracellular domain with …; test: as above
Method: as §1, §2

[17] = biological target: T5, FcγRIIIa F type extracellular domain …; test: as above
Method: as §1, §2

[18] = biological target: T6, FcγRIIa H type extracellular domain …; test: as above
Method: as §1, §2

[19] = biological target: T1, FcγRIIIa V type extracellular domain …; test: SPR (Biacore), antibody captured on chip, soluble FcgR as analyte; experiment 1 (second row of this antibody)
Method: as §1, §2

[20] = biological target: T2, FcγRIIb extracellular domain with …; test: as above
Method: as §1, §2

[21] = biological target: T3, FcγRIIa R type extracellular domain …; test: as above
Method: as §1, §2

[22] = biological target: T4, FcγRIa extracellular domain with …; test: as above
Method: as §1, §2

[23] = biological target: T5, FcγRIIIa F type extracellular domain …; test: as above
Method: as §1, §2

[24] = biological target: T6, FcγRIIa H type extracellular domain …; test: as above
Method: as §1, §2

T4 sequence (P12314 16-292): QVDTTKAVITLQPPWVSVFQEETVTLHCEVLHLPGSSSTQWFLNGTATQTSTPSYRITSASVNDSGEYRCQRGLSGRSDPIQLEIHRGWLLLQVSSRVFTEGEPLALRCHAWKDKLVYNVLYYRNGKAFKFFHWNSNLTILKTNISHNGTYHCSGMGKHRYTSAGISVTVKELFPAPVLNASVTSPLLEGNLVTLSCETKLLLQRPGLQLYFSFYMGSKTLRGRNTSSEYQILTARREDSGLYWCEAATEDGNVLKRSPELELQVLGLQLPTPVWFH
T1 sequence (P08637 17-208 F176V): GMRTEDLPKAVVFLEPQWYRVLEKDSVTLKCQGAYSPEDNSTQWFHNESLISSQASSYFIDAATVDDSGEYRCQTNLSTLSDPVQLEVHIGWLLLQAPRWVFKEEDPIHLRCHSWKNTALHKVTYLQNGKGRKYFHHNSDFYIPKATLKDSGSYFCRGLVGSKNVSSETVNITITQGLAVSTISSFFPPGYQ
T5 sequence (P08637 17-208): as the sequence (P08637 17-208 F176V) above, with V160F counted along it

Kd [1]: 0.99 nM | Kd [2]: 1300 nM | Kd [3]: 240 nM | Kd [4]: 0.11 nM | Kd [5]: 2.9 nM | Kd [6]: 72 nM | Kd [7]: 1.2 nM | Kd [8]: 1500 nM | Kd [9]: 280 nM | Kd [10]: 0.12 nM | Kd [11]: 3.7 nM | Kd [12]: 69 nM | Kd [13]: 1.2 nM | Kd [14]: 1400 nM | Kd [15]: 240 nM | Kd [16]: 0.11 nM | Kd [17]: 3.7 nM | Kd [18]: 79 nM
B1: H240-AK072/H240-BH076/L73-k0 (antibody, human IgG1, kappa)
heavy 1: QDQLVQSGAEVKKPGASVKVSCKASGFNIKDTYIQWVRQAPGQGLEWMGRIDPLRKQTKYREKFEGRVTITADTSTNTAYMELSSLRSEDTAVYYCVRSGREFDYWGQGTLVTVSSASTKGPSVFPLAPSSKSTSGGTAALGCLVKDYFPEPVTVSWNSGALTSGVHTFPAVLQSSGLYSLSSVVTVPSSSLGTQTYICNVNHKPSNTKVDKKVEPKSCDKTHTCPPCPAPEYYWGPSVFLFPPKPKDTLMISRTPEVTCVVVDVSDEEPEVKFNWYVDGVEVHNAKTKPREEQYNATYRVVSVLTVLHQDWLNGKEYKCKVSNKALPAPIEKTISKAKGQPREPQVYTLPPSRKEMTKNQVSLTCLVKGFYPSDIAVEWESNGQPENNYKTTPPVLDSDGSFFLYSKLTVDKSRWQQGNVFSCSVMHEALHNRYTQKSLSLSP
heavy 2: QDQLVQSGAEVKKPGASVKVSCKASGFNIKDTYIQWVRQAPGQGLEWMGRIDPLRKQTKYREKFEGRVTITADTSTNTAYMELSSLRSEDTAVYYCVRSGREFDYWGQGTLVTVSSASTKGPSVFPLAPSSKSTSGGTAALGCLVKDYFPEPVTVSWNSGALTSGVHTFPAVLQSSGLYSLSSVVTVPSSSLGTQTYICNVNHKPSNTKVDKKVEPKSCDKTHTCPPCPAPELLGGPSVFLFPPKPKDTLMISRTPEVTCVVVDVSHEEPEVKFNWYVDGVEVHNAKTKPREEQYNSTYRVVSVLTVLHQDWLNGKEYKCKVSNDALPMPIEETISKAKGQPREPQVYTLPPSREEMTKNQVSLTCLVKGFYPSDIAVEWESNGQPENNYKTTPPVLDSDGSFFLYSKLTVDKSRWQQGNVFSCSVMHEALHNHYTQESLSLSP
light: DIQMTQSPSSLSASVGDRVTITCRASQDIHKYIAWYQQKPGQAPRLLIQYTSTLQPGVPSRFSGSGSGTDYTFTISSLQPEDIATYYCLQYEQLRTFGGGTKVEIKRTVAAPSVFIFPPSDEQLKSGTASVVCLLNNFYPREAKVQWKVDNALQSGNSQESVTEQDSKDSTYSLSSTLTLSKADYEKHKVYACEVTHQGLSSPVTKSFNRGEC
notes: Heterodimerized anti-epiregulin (EREG) IgG1 antibody with two different H chains

Kd [1]: 1.4 nM | Kd [2]: 1500 nM | Kd [3]: 250 nM | Kd [4]: 0.12 nM | Kd [5]: 4.8 nM | Kd [6]: 85 nM | Kd [19]: 1.2 nM | Kd [20]: 1500 nM | Kd [21]: 260 nM | Kd [22]: 0.082 nM | Kd [23]: 3.9 nM | Kd [24]: 85 nM
B2: H240-FA030/H240-FB059/L73-k0 (antibody, human IgG1, kappa)
heavy 1: QDQLVQSGAEVKKPGASVKVSCKASGFNIKDTYIQWVRQAPGQGLEWMGRIDPLRKQTKYREKFEGRVTITADTSTNTAYMELSSLRSEDTAVYYCVRSGREFDYWGQGTLVTVSSASTKGPSVFPLAPSSKSTSGGTAALGCLVKDYFPEPVTVSWNSGALTSGVHTFPAVLQSSGLYSLSSVVTVPSSSLGTKTYTCNVNHKPSNTKVDKKVEPKSCDKTHTCPPCPAPEYYWGPSVFLFPPKPKDTLMISRTPEVTCVVVDVSDEEPKVKFNWYVDGVEVHNAKTKPREEQYNATYRVVSVLTVLHQDWLNGKEYKCKVSNKALPAPIEKTISKAKGQPREPQVYTLPPSRKEMTKNQVSLTCLVKGFYPSDIAVEWESNGQPENNYKTTPPVLDSDGSFFLYSKLTVDKSRWQQGNVFSCSVMHEALHNRYTQKSLSLSP
heavy 2: QDQLVQSGAEVKKPGASVKVSCKASGFNIKDTYIQWVRQAPGQGLEWMGRIDPLRKQTKYREKFEGRVTITADTSTNTAYMELSSLRSEDTAVYYCVRSGREFDYWGQGTLVTVSSASTKGPSVFPLAPSSKSTSGETAALGCLVEDYFPEPVTVSWNSGALTSGVHTFPAVLQSSGLYSLSSVVTVPSSSLGTQTYICNVNHKPSNTKVDKKVEPKSCDKTHTCPPCPAPELLGGPSVFLFPPKPKDTLMISRTPEVTCVVVDVSHEEPEVQFNWYVDGVEVHNAETKPREEQYNSTYRVVSVLTVLHQDWLNGKEYKCKVSNDALPMPIEETISKAKGQPREPQVYTLPPSREEMTKNQVSLTCLVKGFYPSDIAVEWESNGQPENNYKTTPPVLDSDGSFFLYSKLTVDKSRWQQGNVFSCSVMHEALHNHYTQESLSLSP
light: DIQMTQSPSSLSASVGDRVTITCRASQDIHKYIAWYQQKPGQAPRLLIQYTSTLQPGVPSRFSGSGSGTDYTFTISSLQPEDIATYYCLQYEQLRTFGGGTKVEIKRTVAAPSVFIFPPSDEQLKSGTASVVCLLNNFYPREAKVQWKVDNALQSGNSQESVTEQDSKDSTYSLSSTLTLSKADYEKHKVYACEVTHQGLSSPVTKSFNRGEC
notes: Heterodimerized anti-EREG IgG1 antibody; A chain altered from H240-AK072, B chain altered from H240-BH076
